Kd data for five molecules are collected here from patent publication US20200317768A1 (published 2020).

What all share (experiment): SPR (BIACORE), captured antibody, FcgR as analyte
Experiment [1] concerns the target T1, human FcγRIIaH extracellular domain, His-tagged (human, UniProt P12318 34-217).
T1 construct: also called human FcγRIIa (type H); FcgRIIaH; not shown: C-terminal His-tag
T1 sequence: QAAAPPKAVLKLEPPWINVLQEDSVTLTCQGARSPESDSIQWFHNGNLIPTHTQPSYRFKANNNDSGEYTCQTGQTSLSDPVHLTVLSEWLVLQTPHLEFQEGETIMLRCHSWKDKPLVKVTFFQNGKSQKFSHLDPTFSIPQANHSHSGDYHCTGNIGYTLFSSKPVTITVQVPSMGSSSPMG

Experiment [2] addresses T2, cynomolgus monkey FcγRIIb extracellular domain, His-tagged (cynomolgus monkey).
T2 construct: also called cyno FcγRIIb; cynoFcγRIIb; not shown: C-terminal His-tag
T2 chain: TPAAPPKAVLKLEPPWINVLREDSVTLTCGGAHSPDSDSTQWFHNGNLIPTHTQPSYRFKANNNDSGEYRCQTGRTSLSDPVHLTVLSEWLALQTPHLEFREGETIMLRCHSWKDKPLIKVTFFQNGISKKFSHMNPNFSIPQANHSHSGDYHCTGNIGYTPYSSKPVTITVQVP

Experiment [3] has as its target T3, cynomolgus monkey FcγRIIIaS extracellular domain, His-tagged (cynomolgus monkey, UniProt Q8SPW2 21-206 at identity 1.00)).
T3 construct: also called cyno FcγRIIIaS; cynoFcγRIIIaS; not shown: C-terminal His-tag
T3 chain: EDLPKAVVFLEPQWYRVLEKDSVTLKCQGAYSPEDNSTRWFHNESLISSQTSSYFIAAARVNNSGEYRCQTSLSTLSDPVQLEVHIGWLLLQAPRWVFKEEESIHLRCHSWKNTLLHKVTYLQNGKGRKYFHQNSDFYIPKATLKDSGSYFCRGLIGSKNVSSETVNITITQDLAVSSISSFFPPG

The target in experiment [4] is T4, human FcγRIIb extracellular domain, His-tagged (human, UniProt P31994 43-217).
T4 construct: also called FcgRIIb (human); not shown: C-terminal His-tag
T4 sequence: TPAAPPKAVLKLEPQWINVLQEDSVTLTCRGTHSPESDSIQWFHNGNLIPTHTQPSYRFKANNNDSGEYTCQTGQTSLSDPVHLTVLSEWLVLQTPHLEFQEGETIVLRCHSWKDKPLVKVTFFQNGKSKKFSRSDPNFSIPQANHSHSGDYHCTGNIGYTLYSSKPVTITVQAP

The target of experiment [5] is T5, cynomolgus monkey FcγRIIa2 extracellular domain, His-tagged (cynomolgus monkey).
T5 construct: also called cyno FcγRIIa2; cynoFcgRIIa2; not shown: C-terminal His-tag
T5 chain: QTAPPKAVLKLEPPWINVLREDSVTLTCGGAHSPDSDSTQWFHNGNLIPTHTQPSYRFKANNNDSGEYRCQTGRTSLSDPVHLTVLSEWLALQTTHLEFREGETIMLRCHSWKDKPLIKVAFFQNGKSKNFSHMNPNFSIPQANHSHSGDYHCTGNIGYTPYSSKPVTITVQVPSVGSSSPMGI

The target of experiment [6] is T6, human FcγRIIIaV extracellular domain, His-tagged (human, UniProt P08637 17-208).
T6 construct: also called FcgRIIIaV; not shown: C-terminal His-tag
T6 sequence (P08637 17-208 F176V): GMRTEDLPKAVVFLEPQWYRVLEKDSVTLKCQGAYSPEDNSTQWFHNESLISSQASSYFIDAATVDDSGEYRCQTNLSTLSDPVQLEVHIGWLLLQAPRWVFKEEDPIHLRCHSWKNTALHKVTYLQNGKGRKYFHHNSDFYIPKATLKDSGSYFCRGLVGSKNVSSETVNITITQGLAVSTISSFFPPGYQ

Experiment [7] has as its target T7, cynomolgus monkey FcγRIIa1 extracellular domain, His-tagged (cynomolgus monkey).
T7 construct: also called cyno FcγRIIa1; cynoFcgRIIa1; not shown: C-terminal His-tag
T7 chain: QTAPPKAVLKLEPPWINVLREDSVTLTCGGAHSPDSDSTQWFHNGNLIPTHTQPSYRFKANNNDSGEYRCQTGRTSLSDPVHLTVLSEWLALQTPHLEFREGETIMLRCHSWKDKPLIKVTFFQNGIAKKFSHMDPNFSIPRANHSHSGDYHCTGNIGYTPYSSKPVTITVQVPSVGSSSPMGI

In experiment [8] the target is T8, human FcγRIIaR extracellular domain, His-tagged (human, UniProt P12318 34-217).
T8 construct: also called human FcγRIIa (type R); FcgRIIaR; not shown: C-terminal His-tag
T8 chain: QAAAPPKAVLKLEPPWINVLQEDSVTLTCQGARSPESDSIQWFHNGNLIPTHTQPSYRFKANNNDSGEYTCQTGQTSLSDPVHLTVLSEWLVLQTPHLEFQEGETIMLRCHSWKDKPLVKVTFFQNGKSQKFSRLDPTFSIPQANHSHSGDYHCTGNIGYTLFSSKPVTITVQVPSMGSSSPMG

B1: M103205H795-MY460/M103202L889-SK1 (antibody, human IgG1, kappa)
heavy: QVTLKESGPVLVKPTETLTLTCTVSGIDLSHDDISWVRQAPGKGLEWVGIISYAGSTYYASWAKGRLTISKDTSKNQVVLTMTNMDPVDTATYYCARGVPAYSHGGDLWGQGTLVTVSSASTKGPSVFPLAPSSKSTSGGTAALGCLVKDYFPEPVTVSWNSGALTSGVHTFPAVLQSSGLYSLSSVVTVPSSSLGTQTYICNVNHKPSNTKVDKKVEPKSCDKTHTCPPCPEPELLTGPSVFLFPPKPKDTLMISRTPEVTCVVVDVSDEDPEVKFNWYVDGVEVHNAKTKPREEQYNSTYRVVSVLTVLHQDWLNGKEYKCKVSNKALPKPIEKTISKAKGQPREPQVYTLPPSREEMTKNQVSLTCLVKGFYPSDIAVEWESNGQPENNYKTTPPVLDSDGSFFLYSKLTVDKSRWQQGNVFSCSVMHEALHNHYTQKSLSLSP
light: DIVMTQSPATLSLSPGERATLSCTSSQSVYHANWLSWFQQKPGQPPKLLIYWASTLAYGVPSRFSGSGSGTDFTLTISSLQPEDAATYYCAGGYGGGRYAFGQGTKVEIKRTVAAPSVFIFPPSDEQLKSGTASVVCLLNNFYPREAKVQWKVDNALQSGNSQESVTEQDSKDSTYSLSSTLTLSKADYEKHKVYACEVTHQGLSSPVTKSFNRGEC
notes: copies: 2 + 2
In the case of B1, the Kd stood at 260 nM in experiment [1]; 790 nM in experiment [2]; 2700 nM in experiment [3]; 2400 nM in experiment [4]; 3100 nM in experiment [5]; 6.7 µM in experiment [6]. Moreover, the figures for the Kd in experiment [7] and in experiment [8] were 3100 nM and 550 nM, respectively.

B2: M103205H795-MY464/M103202L889-SK1 (antibody, human IgG1, kappa)
heavy: QVTLKESGPVLVKPTETLTLTCTVSGIDLSHDDISWVRQAPGKGLEWVGIISYAGSTYYASWAKGRLTISKDTSKNQVVLTMTNMDPVDTATYYCARGVPAYSHGGDLWGQGTLVTVSSASTKGPSVFPLAPSSKSTSGGTAALGCLVKDYFPEPVTVSWNSGALTSGVHTFPAVLQSSGLYSLSSVVTVPSSSLGTQTYICNVNHKPSNTKVDKKVEPKSCDKTHTCPPCPIPELLTGPSVFLFPPKPKDTLMISRTPEVTCVVVDVSDEDPEVKFNWYVDGVEVHNAKTKPREEQYNSTYRVVSVLTVLHQDWLNGKEYKCKVSNKALPKPIEKTISKAKGQPREPQVYTLPPSREEMTKNQVSLTCLVKGFYPSDIAVEWESNGQPENNYKTTPPVLDSDGSFFLYSKLTVDKSRWQQGNVFSCSVMHEALHNHYTQKSLSLSP
light: DIVMTQSPATLSLSPGERATLSCTSSQSVYHANWLSWFQQKPGQPPKLLIYWASTLAYGVPSRFSGSGSGTDFTLTISSLQPEDAATYYCAGGYGGGRYAFGQGTKVEIKRTVAAPSVFIFPPSDEQLKSGTASVVCLLNNFYPREAKVQWKVDNALQSGNSQESVTEQDSKDSTYSLSSTLTLSKADYEKHKVYACEVTHQGLSSPVTKSFNRGEC
notes: copies: 2 + 2
For B2, the Kd in experiment [1] was 170 nM; in experiment [2], 500 nM; in experiment [3], 1700 nM; in experiment [4] it was 1600 nM; in experiment [5], 1500 nM; in experiment [6], 4.4 µM. Also, the results for the Kd in experiment [7] and in experiment [8] were 1900 nM and 260 nM, respectively.

B3: M103205H795-MY463/M103202L889-SK1 (antibody, human IgG1, kappa)
heavy: QVTLKESGPVLVKPTETLTLTCTVSGIDLSHDDISWVRQAPGKGLEWVGIISYAGSTYYASWAKGRLTISKDTSKNQVVLTMTNMDPVDTATYYCARGVPAYSHGGDLWGQGTLVTVSSASTKGPSVFPLAPSSKSTSGGTAALGCLVKDYFPEPVTVSWNSGALTSGVHTFPAVLQSSGLYSLSSVVTVPSSSLGTQTYICNVNHKPSNTKVDKKVEPKSCDKTHTCPPCPHPELLTGPSVFLFPPKPKDTLMISRTPEVTCVVVDVSDEDPEVKFNWYVDGVEVHNAKTKPREEQYNSTYRVVSVLTVLHQDWLNGKEYKCKVSNKALPKPIEKTISKAKGQPREPQVYTLPPSREEMTKNQVSLTCLVKGFYPSDIAVEWESNGQPENNYKTTPPVLDSDGSFFLYSKLTVDKSRWQQGNVFSCSVMHEALHNHYTQKSLSLSP
light: DIVMTQSPATLSLSPGERATLSCTSSQSVYHANWLSWFQQKPGQPPKLLIYWASTLAYGVPSRFSGSGSGTDFTLTISSLQPEDAATYYCAGGYGGGRYAFGQGTKVEIKRTVAAPSVFIFPPSDEQLKSGTASVVCLLNNFYPREAKVQWKVDNALQSGNSQESVTEQDSKDSTYSLSSTLTLSKADYEKHKVYACEVTHQGLSSPVTKSFNRGEC
notes: copies: 2 + 2
Regarding B3, the Kd in experiment [1] is 220 nM; in experiment [2], 580 nM; in experiment [3], 1600 nM; in experiment [4] it was 2800 nM; in experiment [5], 1800 nM; in experiment [6], 4.3 µM. Also, the Kd in experiment [7] amounted to 2100 nM; in experiment [8], 520 nM.

B4: M103205H795-MY461/M103202L889-SK1 (antibody, human IgG1, kappa)
heavy: QVTLKESGPVLVKPTETLTLTCTVSGIDLSHDDISWVRQAPGKGLEWVGIISYAGSTYYASWAKGRLTISKDTSKNQVVLTMTNMDPVDTATYYCARGVPAYSHGGDLWGQGTLVTVSSASTKGPSVFPLAPSSKSTSGGTAALGCLVKDYFPEPVTVSWNSGALTSGVHTFPAVLQSSGLYSLSSVVTVPSSSLGTQTYICNVNHKPSNTKVDKKVEPKSCDKTHTCPPCPFPELLTGPSVFLFPPKPKDTLMISRTPEVTCVVVDVSDEDPEVKFNWYVDGVEVHNAKTKPREEQYNSTYRVVSVLTVLHQDWLNGKEYKCKVSNKALPKPIEKTISKAKGQPREPQVYTLPPSREEMTKNQVSLTCLVKGFYPSDIAVEWESNGQPENNYKTTPPVLDSDGSFFLYSKLTVDKSRWQQGNVFSCSVMHEALHNHYTQKSLSLSP
light: DIVMTQSPATLSLSPGERATLSCTSSQSVYHANWLSWFQQKPGQPPKLLIYWASTLAYGVPSRFSGSGSGTDFTLTISSLQPEDAATYYCAGGYGGGRYAFGQGTKVEIKRTVAAPSVFIFPPSDEQLKSGTASVVCLLNNFYPREAKVQWKVDNALQSGNSQESVTEQDSKDSTYSLSSTLTLSKADYEKHKVYACEVTHQGLSSPVTKSFNRGEC
notes: copies: 2 + 2
For B4, the Kd in experiment [1] is 130 nM; in experiment [2], 470 nM; in experiment [3] it was 2100 nM; in experiment [4], 1700 nM; in experiment [5], 1800 nM; in experiment [6], 5.4 µM. Moreover, the Kd in experiment [7] was 1300 nM; in experiment [8] it was 340 nM.

B5: M103205H795-MY462/M103202L889-SK1 (antibody, human IgG1, kappa)
heavy: QVTLKESGPVLVKPTETLTLTCTVSGIDLSHDDISWVRQAPGKGLEWVGIISYAGSTYYASWAKGRLTISKDTSKNQVVLTMTNMDPVDTATYYCARGVPAYSHGGDLWGQGTLVTVSSASTKGPSVFPLAPSSKSTSGGTAALGCLVKDYFPEPVTVSWNSGALTSGVHTFPAVLQSSGLYSLSSVVTVPSSSLGTQTYICNVNHKPSNTKVDKKVEPKSCDKTHTCPPCPGPELLTGPSVFLFPPKPKDTLMISRTPEVTCVVVDVSDEDPEVKFNWYVDGVEVHNAKTKPREEQYNSTYRVVSVLTVLHQDWLNGKEYKCKVSNKALPKPIEKTISKAKGQPREPQVYTLPPSREEMTKNQVSLTCLVKGFYPSDIAVEWESNGQPENNYKTTPPVLDSDGSFFLYSKLTVDKSRWQQGNVFSCSVMHEALHNHYTQKSLSLSP
light: DIVMTQSPATLSLSPGERATLSCTSSQSVYHANWLSWFQQKPGQPPKLLIYWASTLAYGVPSRFSGSGSGTDFTLTISSLQPEDAATYYCAGGYGGGRYAFGQGTKVEIKRTVAAPSVFIFPPSDEQLKSGTASVVCLLNNFYPREAKVQWKVDNALQSGNSQESVTEQDSKDSTYSLSSTLTLSKADYEKHKVYACEVTHQGLSSPVTKSFNRGEC
notes: copies: 2 + 2
Take B5: the Kd amounted to 240 nM in experiment [1]; 470 nM in experiment [2]; 1800 nM in experiment [3]; 1900 nM in experiment [4]; 1600 nM in experiment [5]; 5.4 µM in experiment [6]. For the same molecule, the Kd in experiment [7] was 1900 nM; in experiment [8] it was 490 nM.
